According to PMC3060825, “Structure and Function of the First Full-Length Murein Peptide Ligase (Mpl) Cell Wall Recycling Protein” (PLoS ONE, 2011):
Values belong to the molecule of their own block, whether it stands above or below them.

Legend:
[1] = target: murein peptide ligase (Mpl) from Psychrobacter arcticus 273-4 (Psychrobacter arcticus 273-4); assay: SEC-MALS; SEC/SLS: 1x30 cm Superdex 200 coupled with miniDAWN static light scattering and Optilab differential refractive index detectors; 20 mM Tris-HCl pH 8.0, 150 mM sodium chloride, 0.02% sodium azide; molecular weight by ASTRA 5.1.5
[2] = target: murein peptide ligase (Mpl) from Psychrobacter arcticus 273-4 (Psychrobacter arcticus 273-4); assay: SEC; elution of the same Superdex 200 run (refractive index trace) compared with the BioRad gel filtration standard (158, 44 and 17 kDa)
[3] = target: the molecule itself; assay: SEC; 100 µl of 1.3 mg of EcMpl on Superdex 200 10/300 GL; 20 mM potassium phosphate pH 7.4, 0.15 mM NaCl, 0.01% 2-mercaptoethanol; 0.5 ml/min, detection at 280 nm
purified protein [4] = substrate: Nc1ncnc2c1ncn2[C@@H]1O[C@H](COP(=O)(O)OP(=O)(O)OP(=O)(O)O)[C@@H](O)[C@H]1O; assay: purified protein; format: biochemical, Psychrobacter arcticus; settings: 0.4 mM UDP-MurNAc, 0.25 mM L-Ala-γ-D-Glu-meso-A2pm, 5 mM MgCl2, pH 8.4, 30 min
purified protein [5] = substrate: CC(=O)N[C@H]1[C@@H](OP(=O)(O)OP(=O)(O)OC[C@H]2O[C@@H](n3ccc(=O)[nH]c3=O)[C@H](O)[C@@H]2O)O[C@H](CO)[C@@H](O)[C@@H]1O[C@H](C)C(=O)O; assay: purified protein; format: biochemical, Psychrobacter arcticus; settings: 5 mM ATP, 0.25 mM L-Ala-γ-D-Glu-meso-A2pm, 5 mM MgCl2, pH 8.4, 30 min, labelled compound

stoichiometry N [1]: 2.09
stoichiometry N [2]: 4
Molecule: murein peptide ligase (Mpl) from Psychrobacter arcticus 273-4 (enzyme)

B1: Mpl from Escherichia coli (enzyme, UniProt P37773 1-457, looked up)
chain: MRIHILGICGTFMGGLAMLARQLGHEVTGSDANVYPPMSTLLEKQGIELIQGYDASQLEPQPDLVIIGNAMTRGNPCVEAVLEKNIPYMSGPQWLHDFVLRDRWVLAVAGTHGKTTTAGMATWILEQCGYKPGFVIGGVPGNFEVSAHLGESDFFVIEADEYDCAFFDKRSKFVHYCPRTLILNNLEFDHADIFDDLKAIQKQFHHLVRIVPGQGRIIWPENDINLKQTMAMGCWSEQELVGEQGHWQAKKLTTDASEWEVLLDGEKVGEVKWSLVGEHNMHNGLMAIAAARHVGVAPADAANALGSFINARRRLELRGEANGVTVYDDFAHHPTAILATLAALRGKVGGTARIIAVLEPRSNTMKMGICKDDLAPSLGRADEVFLLQPAHIPWQVAEVAEACVQPAHWSGDVDTLADMVVKTAQPGDHILVMSNGGFGGIHQKLLDGLAKKAEAAQ
notes: Mpl (murein peptide ligase, UDP-MurNAc:L-Ala-gamma-D-Glu-meso-A2pm ligase), Escherichia coli; also called EcMpl; E. coli ortholog
stoichiometry N [3]: 2

B2: PaMpl (Psychrobacter arcticus 273-4) (protein)
chain: MHIHILGICGTFMGSLALLARALGHTVTGSDANIYPPMSTQLEQAGVTIEEGYLIAHLQPAPDLVVVGNAMKRGMDVIEYMLDTGLRYTSGPQFLSEQVLQSRHVIAVAGTHGKTTTTTMLAWILHYAGIDAGFLIGGVPLVNTTDTNLQQVFAHSSYLGTEKDDSDNSVNTGYFVIEADEYDSAFFDKRSKFVHYRPRTAILNNLEFDHADIFADLDAIQTQFHHMVRMIPSTGKIIMPAATISLEDTLAKGVWTPIWRTSVIDSTISSVRREDSPLENSQAENSSDWQAELISADGSQFTVSFNDNKEATALVNWSMSGLHNVNNALVAIAAAYNIGVSVKTACAALSAFAGIKRRMELIGDVNDILVFDDFAHHPTAITTTLDGAKKKLADRRLWAIIEPRSNTMKMGIHQDSLAQSATLADHTLWYEPTGLEWGLKEVIDNATIANPSIGSQQVLSSVDDIIKHICTHAKAGDAIVIMSNGGFEGIHQRLLTALGNIVAIL
notes: full length, 505 residues; N-terminal His6 tag (…) kept for kinetics; E. coli MLD2502 (delta mpl); 57,187 Da with tag; dimer in solution by light scattering
Km (purified protein [4]): 110 ± 50 µM
kcat (purified protein [4]): 4.33 ± 0.333 s⁻¹
kcat/Km (purified protein [4]): 40000 ± 18300 M⁻¹ s⁻¹
Km (purified protein [5]): 1000 ± 130 µM
kcat (purified protein [5]): 4.33 ± 0.333 s⁻¹
kcat/Km (purified protein [5]): 4330 ± 650 M⁻¹ s⁻¹
